Measurements reported in patent publication US20220411514A1, “ANTI-GAL3 ANTIBODIES AND METHODS OF USE FOR INSULIN RESISTANCE” (TrueBinding, Inc., priority 2021, published 2022).

Tests used:
Format in all cases: binding
Conditions in all cases: Example 14
human Gal3 = target: T1, human Gal3 (Homo sapiens, UniProt P17931); test: Affinity kinetics to human Gal3 (Carterra LSA)
T1 construct: 6xHis (linker-spaced) (C); purchased AcroBio (Acro Biosystems) GA3-H5129
Method: (§1) Kinetics experiments were performed on a Carterra LSA at 25° C.
(§2) Then, a dilution series of Gal3 (2, 4, 8, 16, 32, 64, and 128 nM) in HBSTE with 0.5 mg/mL BSA was injected to the whole array for 300 seconds to allow association followed by dissociation for 240 seconds. The kinetics constants were calculated by the software NextGenKIT.
(§3) The affinity of Gal3 binding to antibody was determined by acquiring real time Ligand:Analyte binding kinetics data and fitting the data with a 1:1 monovalent binding model. The kinetic evaluation procedure determines association and dissociation constants by fitting the experimental data to a 1:1 interaction model between analyte A and ligand B:
(§4) The affinity KD is the result of Kd divided by Ka.
(§5) The protocol disclosed in Example 9 was generally followed.

mouse Gal3 = mouse Gal3 (Mus musculus, UniProt P16110); test: Affinity kinetics to mouse Gal3 (Carterra LSA)
Method: as §1, §2, §3, §4, §5

His-EK-cynoGal3 = test: Affinity kinetics to cynomolgus Gal3 (Biacore T200)
Method: In each cycle, duplicates were made by loading the same antibody to flow cells FC2 and FC4, and then analyte was flowed to all 4 flow cells. The detection was done pairwise, FC2-FC1 and FC4-FC3, to subtract non-specific binding of analyte to the surface. A cycle of 0 nM analyte was run prior to a dilution series of analyte. The 0 nM raw data were subtracted from each non-zero concentration data to minimize machine drifts. The data were analyzed by Biacore Evaluation software version 2.0. The binding affinities were characterized by fitting the kinetic sensograms to a monovalent binding model (1:1 binding).
as §3, §4, §5

His-EK-ratGal3 = target: T2, His-EK-ratGal3 (Rattus norvegicus, UniProt P08699); test: Affinity kinetics to rat Gal3 (Biacore T200)
T2 sequence (P08699 1-262): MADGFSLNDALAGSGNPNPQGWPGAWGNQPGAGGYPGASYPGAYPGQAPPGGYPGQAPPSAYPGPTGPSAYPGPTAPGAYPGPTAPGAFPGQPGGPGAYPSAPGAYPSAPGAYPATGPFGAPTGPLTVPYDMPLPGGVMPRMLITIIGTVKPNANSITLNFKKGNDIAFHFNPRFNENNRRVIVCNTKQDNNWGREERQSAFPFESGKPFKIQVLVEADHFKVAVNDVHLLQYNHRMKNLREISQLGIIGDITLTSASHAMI
Method: In each sample cycle, duplicates of the same antibody in HBS-EP+ with 0.5 mg/mL BSA at 10 μg/mL were captured to FC2 and FC4 by flowing at 10.0 μL/min for 120 seconds, and then diluted His-EK-ratGal3 in HBS-EP+ with 0.5 mg/mL BSA was injected to all 4 flow cells at 30.0 μL/min for 180 seconds, followed by dissociation for 240 seconds. A dilution series of His-EK-ratGal3 started from 300 nM, and was 1:3 diluted for 6 points. FC1 and FC3 were used as reference flow cells, and their sensograms were subtracted from FC2 and FC4 respectively to reduce non-specific binding background. Also, an additional sample cycle at 0 nM analyte was run, and its sensogram was subtracted from those of non-zero nM cycles to address machine drifts and bulk shifts. The data were analyzed by Biacore Evaluation software version 2.0. The binding affinities were characterized by fitting the kinetic sensograms to a monovalent binding model (1:1 binding).
as §3, §4, §5

T1 sequence (P17931 whole entry): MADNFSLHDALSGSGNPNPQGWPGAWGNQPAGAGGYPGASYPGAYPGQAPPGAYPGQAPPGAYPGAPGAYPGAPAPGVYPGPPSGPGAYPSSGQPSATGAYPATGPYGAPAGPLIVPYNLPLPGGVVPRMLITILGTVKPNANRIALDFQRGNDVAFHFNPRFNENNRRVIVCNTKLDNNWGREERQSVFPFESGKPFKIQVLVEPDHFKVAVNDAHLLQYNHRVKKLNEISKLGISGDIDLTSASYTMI
Sequence of mouse Gal3 (P16110 whole entry): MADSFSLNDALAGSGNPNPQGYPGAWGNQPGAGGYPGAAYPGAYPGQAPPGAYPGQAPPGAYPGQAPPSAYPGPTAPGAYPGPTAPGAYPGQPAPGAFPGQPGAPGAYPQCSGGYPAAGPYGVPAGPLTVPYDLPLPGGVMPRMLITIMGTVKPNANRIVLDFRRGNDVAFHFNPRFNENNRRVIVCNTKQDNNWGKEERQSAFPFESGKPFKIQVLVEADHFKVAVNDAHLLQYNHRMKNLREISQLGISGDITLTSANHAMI

For “Synagis: negative control antibody, hIgG4 backbone [reference compound]”, the “average affinity to human Gal3” value (human Gal3) was “did not bind”, the “average affinity to mouse Gal3” value (mouse Gal3) was “did not show any binding activity” and the “affinity to His-EK-cynoGal3” value (His-EK-cynoGal3) was “did not bind”. The “average affinity to His-EK-ratGal3” value (His-EK-ratGal3) was “did not bind”.
